Measured values from patent publication US20230272029A1, “CO-AGONISTS AT GLP-1 AND GIP RECEPTORS SUITABLE FOR ORAL DELIVERY” (Novo Nordisk A/S, priority 2020, published 2023).
Starred links: 1 amine or outer side, 2 acyl side, 3 side chain; linkers in the order of their positions; H or OH if unused. Non-standard residues stand in square brackets, D forms with d. Groups on a side chain read outwards from the residue. No end group written: not given here. *: point of attachment. C18 diacid = O=C(O)CCCCCCCCCCCCCCCCC(=O)*; γGlu = O=C(O)[C@H](CCC(=O)[*:2])N[*:1]; εLys = N[C@@H](CCCCN[*:1])C(=O)[*:2]; AEEA = NCCOCCOCC(=O)O; Aib = CC(C)(N)C(=O)O

T1: human GIP receptor (human, UniProt P48546 22-466)
T1 sequence (looked up): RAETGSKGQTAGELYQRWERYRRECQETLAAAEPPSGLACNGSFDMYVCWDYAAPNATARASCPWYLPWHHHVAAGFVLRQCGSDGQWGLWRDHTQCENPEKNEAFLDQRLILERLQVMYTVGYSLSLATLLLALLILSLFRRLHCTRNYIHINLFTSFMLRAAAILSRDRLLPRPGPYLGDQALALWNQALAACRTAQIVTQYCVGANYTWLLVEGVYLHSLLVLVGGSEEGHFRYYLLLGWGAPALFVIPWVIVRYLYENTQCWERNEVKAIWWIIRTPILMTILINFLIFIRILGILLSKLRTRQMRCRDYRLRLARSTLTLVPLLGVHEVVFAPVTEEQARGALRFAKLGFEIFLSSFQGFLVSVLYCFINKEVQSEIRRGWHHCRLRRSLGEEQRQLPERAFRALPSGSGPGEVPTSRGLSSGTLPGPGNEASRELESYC

B1: Compound No. 44 (peptide)
peptide: Y[Aib]EGTFTSDYSILLEEQAAREFINWLLAGGPSK([εLys-εLys-γGlu-C18 diacid])GAPPPS-OH
modifications: N-terminus assumed
SMILES: CC[C@H](C)[C@H](NC(=O)[C@H](Cc1ccccc1)NC(=O)[C@H](CCC(=O)O)NC(=O)[C@H](CCCNC(=N)N)NC(=O)[C@H](C)NC(=O)[C@H](C)NC(=O)[C@H](CCC(N)=O)NC(=O)[C@H](CCC(=O)O)NC(=O)[C@H](CCC(=O)O)NC(=O)[C@H](CC(C)C)NC(=O)[C@H](CC(C)C)NC(=O)[C@@H](NC(=O)[C@H](CO)NC(=O)[C@H](Cc1ccc(O)cc1)NC(=O)[C@H](CC(=O)O)NC(=O)[C@H](CO)NC(=O)[C@@H](NC(=O)[C@H](Cc1ccccc1)NC(=O)[C@@H](NC(=O)CNC(=O)[C@H](CCC(=O)O)NC(=O)C(C)(C)NC(=O)[C@@H](N)Cc1ccc(O)cc1)[C@@H](C)O)[C@@H](C)O)[C@@H](C)CC)C(=O)N[C@@H](CC(N)=O)C(=O)N[C@@H](Cc1c[nH]c2ccccc12)C(=O)N[C@@H](CC(C)C)C(=O)N[C@@H](CC(C)C)C(=O)N[C@@H](C)C(=O)NCC(=O)NCC(=O)N1CCC[C@H]1C(=O)N[C@@H](CO)C(=O)N[C@@H](CCCCNC(=O)[C@@H](N)CCCCNC(=O)[C@@H](N)CCCCNC(=O)CC[C@H](NC(=O)CCCCCCCCCCCCCCCCC(=O)O)C(=O)O)C(=O)NCC(=O)N[C@@H](C)C(=O)N1CCC[C@H]1C(=O)N1CCC[C@H]1C(=O)N1CCC[C@H]1C(=O)N[C@@H](CO)C(=O)O
B2: Compound No. 34 (peptide)
peptide: Y[Aib]EGTFTSDYSIILEK([εLys-εLys-γGlu-C18 diacid])QAAREFINWLLAGGPSSGAPPPS-OH
modifications: N-terminus assumed
SMILES: CC[C@H](C)[C@H](NC(=O)[C@H](Cc1ccccc1)NC(=O)[C@H](CCC(=O)O)NC(=O)[C@H](CCCNC(=N)N)NC(=O)[C@H](C)NC(=O)[C@H](C)NC(=O)[C@H](CCC(N)=O)NC(=O)[C@H](CCCCNC(=O)[C@@H](N)CCCCNC(=O)[C@@H](N)CCCCNC(=O)CC[C@H](NC(=O)CCCCCCCCCCCCCCCCC(=O)O)C(=O)O)NC(=O)[C@H](CCC(=O)O)NC(=O)[C@H](CC(C)C)NC(=O)[C@@H](NC(=O)[C@@H](NC(=O)[C@H](CO)NC(=O)[C@H](Cc1ccc(O)cc1)NC(=O)[C@H](CC(=O)O)NC(=O)[C@H](CO)NC(=O)[C@@H](NC(=O)[C@H](Cc1ccccc1)NC(=O)[C@@H](NC(=O)CNC(=O)[C@H](CCC(=O)O)NC(=O)C(C)(C)NC(=O)[C@@H](N)Cc1ccc(O)cc1)[C@@H](C)O)[C@@H](C)O)[C@@H](C)CC)[C@@H](C)CC)C(=O)N[C@@H](CC(N)=O)C(=O)N[C@@H](Cc1c[nH]c2ccccc12)C(=O)N[C@@H](CC(C)C)C(=O)N[C@@H](CC(C)C)C(=O)N[C@@H](C)C(=O)NCC(=O)NCC(=O)N1CCC[C@H]1C(=O)N[C@@H](CO)C(=O)N[C@@H](CO)C(=O)NCC(=O)N[C@@H](C)C(=O)N1CCC[C@H]1C(=O)N1CCC[C@H]1C(=O)N1CCC[C@H]1C(=O)N[C@@H](CO)C(=O)O
B3: Compound No. 32 (peptide)
peptide: Y[Aib]EGTFTSDYSILLEK([AEEA-AEEA-γGlu-C18 diacid])QAAREFIEWLLAGGPSSGAPPPS-OH
modifications: N-terminus assumed
SMILES: CC[C@H](C)[C@H](NC(=O)[C@H](Cc1ccccc1)NC(=O)[C@H](CCC(=O)O)NC(=O)[C@H](CCCNC(=N)N)NC(=O)[C@H](C)NC(=O)[C@H](C)NC(=O)[C@H](CCC(N)=O)NC(=O)[C@H](CCCCNC(=O)COCCOCCNC(=O)COCCOCCNC(=O)CC[C@H](NC(=O)CCCCCCCCCCCCCCCCC(=O)O)C(=O)O)NC(=O)[C@H](CCC(=O)O)NC(=O)[C@H](CC(C)C)NC(=O)[C@H](CC(C)C)NC(=O)[C@@H](NC(=O)[C@H](CO)NC(=O)[C@H](Cc1ccc(O)cc1)NC(=O)[C@H](CC(=O)O)NC(=O)[C@H](CO)NC(=O)[C@@H](NC(=O)[C@H](Cc1ccccc1)NC(=O)[C@@H](NC(=O)CNC(=O)[C@H](CCC(=O)O)NC(=O)C(C)(C)NC(=O)[C@@H](N)Cc1ccc(O)cc1)[C@@H](C)O)[C@@H](C)O)[C@@H](C)CC)C(=O)N[C@@H](CCC(=O)O)C(=O)N[C@@H](Cc1c[nH]c2ccccc12)C(=O)N[C@@H](CC(C)C)C(=O)N[C@@H](CC(C)C)C(=O)N[C@@H](C)C(=O)NCC(=O)NCC(=O)N1CCC[C@H]1C(=O)N[C@@H](CO)C(=O)N[C@@H](CO)C(=O)NCC(=O)N[C@@H](C)C(=O)N1CCC[C@H]1C(=O)N1CCC[C@H]1C(=O)N1CCC[C@H]1C(=O)N[C@@H](CO)C(=O)O
B4: Compound No. 33 (peptide)
peptide: Y[Aib]EGTVTSDYSILLEK([εLys-εLys-γGlu-C18 diacid])QAAREFINWLLAGGPSSGAPPPS-OH
modifications: N-terminus assumed
SMILES: CC[C@H](C)[C@H](NC(=O)[C@H](Cc1ccccc1)NC(=O)[C@H](CCC(=O)O)NC(=O)[C@H](CCCNC(=N)N)NC(=O)[C@H](C)NC(=O)[C@H](C)NC(=O)[C@H](CCC(N)=O)NC(=O)[C@H](CCCCNC(=O)[C@@H](N)CCCCNC(=O)[C@@H](N)CCCCNC(=O)CC[C@H](NC(=O)CCCCCCCCCCCCCCCCC(=O)O)C(=O)O)NC(=O)[C@H](CCC(=O)O)NC(=O)[C@H](CC(C)C)NC(=O)[C@H](CC(C)C)NC(=O)[C@@H](NC(=O)[C@H](CO)NC(=O)[C@H](Cc1ccc(O)cc1)NC(=O)[C@H](CC(=O)O)NC(=O)[C@H](CO)NC(=O)[C@@H](NC(=O)[C@@H](NC(=O)[C@@H](NC(=O)CNC(=O)[C@H](CCC(=O)O)NC(=O)C(C)(C)NC(=O)[C@@H](N)Cc1ccc(O)cc1)[C@@H](C)O)C(C)C)[C@@H](C)O)[C@@H](C)CC)C(=O)N[C@@H](CC(N)=O)C(=O)N[C@@H](Cc1c[nH]c2ccccc12)C(=O)N[C@@H](CC(C)C)C(=O)N[C@@H](CC(C)C)C(=O)N[C@@H](C)C(=O)NCC(=O)NCC(=O)N1CCC[C@H]1C(=O)N[C@@H](CO)C(=O)N[C@@H](CO)C(=O)NCC(=O)N[C@@H](C)C(=O)N1CCC[C@H]1C(=O)N1CCC[C@H]1C(=O)N1CCC[C@H]1C(=O)N[C@@H](CO)C(=O)O
B5: Compound No. 43 (peptide)
peptide: Y[Aib]EGTFTSDYSILLEEQAAREFIEWLLAGGPSK([εLys-εLys-γGlu-C18 diacid])GAPPPS-OH
modifications: N-terminus assumed
SMILES: CC[C@H](C)[C@H](NC(=O)[C@H](Cc1ccccc1)NC(=O)[C@H](CCC(=O)O)NC(=O)[C@H](CCCNC(=N)N)NC(=O)[C@H](C)NC(=O)[C@H](C)NC(=O)[C@H](CCC(N)=O)NC(=O)[C@H](CCC(=O)O)NC(=O)[C@H](CCC(=O)O)NC(=O)[C@H](CC(C)C)NC(=O)[C@H](CC(C)C)NC(=O)[C@@H](NC(=O)[C@H](CO)NC(=O)[C@H](Cc1ccc(O)cc1)NC(=O)[C@H](CC(=O)O)NC(=O)[C@H](CO)NC(=O)[C@@H](NC(=O)[C@H](Cc1ccccc1)NC(=O)[C@@H](NC(=O)CNC(=O)[C@H](CCC(=O)O)NC(=O)C(C)(C)NC(=O)[C@@H](N)Cc1ccc(O)cc1)[C@@H](C)O)[C@@H](C)O)[C@@H](C)CC)C(=O)N[C@@H](CCC(=O)O)C(=O)N[C@@H](Cc1c[nH]c2ccccc12)C(=O)N[C@@H](CC(C)C)C(=O)N[C@@H](CC(C)C)C(=O)N[C@@H](C)C(=O)NCC(=O)NCC(=O)N1CCC[C@H]1C(=O)N[C@@H](CO)C(=O)N[C@@H](CCCCNC(=O)[C@@H](N)CCCCNC(=O)[C@@H](N)CCCCNC(=O)CC[C@H](NC(=O)CCCCCCCCCCCCCCCCC(=O)O)C(=O)O)C(=O)NCC(=O)N[C@@H](C)C(=O)N1CCC[C@H]1C(=O)N1CCC[C@H]1C(=O)N1CCC[C@H]1C(=O)N[C@@H](CO)C(=O)O
B6: Compound No. 31 (peptide)
peptide: Y[Aib]EGTFTSDYSILLEK([εLys-εLys-γGlu-C18 diacid])QAAREFIEWLLAGGPSSGAPPPS-OH
modifications: N-terminus assumed
SMILES: CC[C@H](C)[C@H](NC(=O)[C@H](Cc1ccccc1)NC(=O)[C@H](CCC(=O)O)NC(=O)[C@H](CCCNC(=N)N)NC(=O)[C@H](C)NC(=O)[C@H](C)NC(=O)[C@H](CCC(N)=O)NC(=O)[C@H](CCCCNC(=O)[C@@H](N)CCCCNC(=O)[C@@H](N)CCCCNC(=O)CC[C@H](NC(=O)CCCCCCCCCCCCCCCCC(=O)O)C(=O)O)NC(=O)[C@H](CCC(=O)O)NC(=O)[C@H](CC(C)C)NC(=O)[C@H](CC(C)C)NC(=O)[C@@H](NC(=O)[C@H](CO)NC(=O)[C@H](Cc1ccc(O)cc1)NC(=O)[C@H](CC(=O)O)NC(=O)[C@H](CO)NC(=O)[C@@H](NC(=O)[C@H](Cc1ccccc1)NC(=O)[C@@H](NC(=O)CNC(=O)[C@H](CCC(=O)O)NC(=O)C(C)(C)NC(=O)[C@@H](N)Cc1ccc(O)cc1)[C@@H](C)O)[C@@H](C)O)[C@@H](C)CC)C(=O)N[C@@H](CCC(=O)O)C(=O)N[C@@H](Cc1c[nH]c2ccccc12)C(=O)N[C@@H](CC(C)C)C(=O)N[C@@H](CC(C)C)C(=O)N[C@@H](C)C(=O)NCC(=O)NCC(=O)N1CCC[C@H]1C(=O)N[C@@H](CO)C(=O)N[C@@H](CO)C(=O)NCC(=O)N[C@@H](C)C(=O)N1CCC[C@H]1C(=O)N1CCC[C@H]1C(=O)N1CCC[C@H]1C(=O)N[C@@H](CO)C(=O)O

Tests used:
human GIP receptor = target: T1, human GIP receptor; assay: cell-based or functional assay
human GLP-1 receptor = human GLP-1 receptor (human, UniProt P43220 24-463); assay: cell-based or functional assay

| Binder | hGIPR, CRE Luc 0% HSA EC50 (pM) (human GIP receptor) | hGIPR, CRE Luc 1% HSA EC50 (pM) (human GIP receptor) | hGLP-1R, CRE Luc 0% HSA EC50 (pM) (human GLP-1 receptor) | hGLP-1R, CRE Luc 1% HSA EC50 (pM) (human GLP-1 receptor) |
| --- | --- | --- | --- | --- |
| B1 | 5.7 | 365 | 4.2 | 241 |
| B2 | 8.3 | 213 | 6 | 186 |
| B3 | 7.1 | 679 | 5 | 982 |
| B4 | 2.9 | 103 | 14.8 | 361 |
| B5 | 5.6 | 444 | 4 | 360 |
| B6 | 4.7 | 188 | 4.2 | 202 |
